Reference: patent US6485937

How the values were obtained:
[1] = biological target: HIV TAT trans-activating protein (wildtype TAT, His-tagged fusion)
[2] = biological target: carboxy terminal domain (CTD) of RNA polymerase II fused to GST (GST-CTD) [GST: P08515]

B1: FLAG-epitope tagged HIV tat interacting protein of 30 kDa (f-TIP30) (protein)
chain: DYKDDDDKMAETEALSKLREDFRMQNKSVFILGASGETGRVLLKEILEQGLFSKVTLIGRRKLTFDEEAYKNVNQEVVDFEKLDDYASAFQGHDVGFCCLGTTRGKAGAEGFVRVDRDYVLKSAELAKAGGCKHFNLLSSKGADKSSNFLYLQVKGEVEAKVEELKFDRYSVFRPGVLLCDRQESRPGEWLVRKFFGSLPDSWASGHSVPVVTVVRAMLNNVVRPRDKQMELLENKAIHDLGKAHGSLKP
[1]
  stimulation of f-TIP30 kinase activity on GST-CTD substrate (in vitro kinase assay): stimulate the kinase activity of recombinant f-TIP30 on GST-CTD substrate in a dose dependant manner
[2]
  in vitro kinase assay (phosphorylation of GST-CTD, [g-32P]ATP, autoradiography): it could phosphorylate the carboxy terminal domain (CTD) of RNA polymerase II fused to GST (GST-CTD) in an in vitro kinase assay
